US10428140B2, “Anti-EphA4 antibody” (EISAI R&D MANAGEMENT CO., LTD., priority 2015, dated 2019)

T1: human EphA3 (Homo sapiens, UniProt P29320)
T1 construct: a protein of the extracellular region of each human Eph receptor fused with the SEAP protein and the His tag; made in house; host or cells: Expi293F cells (culture supernatant)
T1 sequence (P29320 21-541 limits assumed): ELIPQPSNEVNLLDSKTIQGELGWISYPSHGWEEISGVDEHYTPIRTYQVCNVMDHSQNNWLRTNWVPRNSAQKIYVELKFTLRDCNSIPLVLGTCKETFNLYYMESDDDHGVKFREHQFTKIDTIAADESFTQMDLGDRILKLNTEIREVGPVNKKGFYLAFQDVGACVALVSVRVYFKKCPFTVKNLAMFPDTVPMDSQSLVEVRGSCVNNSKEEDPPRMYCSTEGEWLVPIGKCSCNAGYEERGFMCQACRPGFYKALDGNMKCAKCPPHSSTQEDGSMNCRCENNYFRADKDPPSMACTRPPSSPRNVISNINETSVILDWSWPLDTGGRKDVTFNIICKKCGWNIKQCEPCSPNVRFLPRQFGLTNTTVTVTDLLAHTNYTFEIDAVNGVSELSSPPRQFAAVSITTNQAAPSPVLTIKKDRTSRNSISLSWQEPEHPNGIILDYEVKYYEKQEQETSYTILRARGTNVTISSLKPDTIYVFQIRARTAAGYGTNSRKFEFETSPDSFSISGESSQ

T2: human EphB4 (Homo sapiens, UniProt P54760)
T2 construct: a protein of the extracellular region of each human Eph receptor fused with the SEAP protein and the His tag; made in house; host or cells: Expi293F cells
T2 sequence (P54760 16-539 limits assumed): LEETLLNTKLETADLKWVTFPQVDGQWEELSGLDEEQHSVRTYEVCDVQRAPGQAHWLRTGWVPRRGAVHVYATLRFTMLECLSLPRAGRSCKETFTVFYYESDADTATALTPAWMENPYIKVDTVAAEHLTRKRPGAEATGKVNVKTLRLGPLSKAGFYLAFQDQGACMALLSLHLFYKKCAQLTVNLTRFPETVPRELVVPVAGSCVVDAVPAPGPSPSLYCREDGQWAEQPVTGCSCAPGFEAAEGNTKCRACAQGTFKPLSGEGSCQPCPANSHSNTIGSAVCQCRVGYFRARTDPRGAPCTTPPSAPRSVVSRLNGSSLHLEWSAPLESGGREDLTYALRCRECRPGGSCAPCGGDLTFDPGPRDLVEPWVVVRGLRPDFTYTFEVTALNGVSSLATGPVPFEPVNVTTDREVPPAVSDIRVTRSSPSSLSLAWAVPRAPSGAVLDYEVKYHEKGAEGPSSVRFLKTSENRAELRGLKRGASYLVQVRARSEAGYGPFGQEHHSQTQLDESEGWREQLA

T3: human EphA10 (Homo sapiens, UniProt Q5JZY3)
T3 construct: a protein of the extracellular region of each human Eph receptor fused with the SEAP protein and the His tag; made in house; host or cells: Expi293F cells (culture supernatant)
T3 sequence (Q5JZY3 34-565 limits assumed): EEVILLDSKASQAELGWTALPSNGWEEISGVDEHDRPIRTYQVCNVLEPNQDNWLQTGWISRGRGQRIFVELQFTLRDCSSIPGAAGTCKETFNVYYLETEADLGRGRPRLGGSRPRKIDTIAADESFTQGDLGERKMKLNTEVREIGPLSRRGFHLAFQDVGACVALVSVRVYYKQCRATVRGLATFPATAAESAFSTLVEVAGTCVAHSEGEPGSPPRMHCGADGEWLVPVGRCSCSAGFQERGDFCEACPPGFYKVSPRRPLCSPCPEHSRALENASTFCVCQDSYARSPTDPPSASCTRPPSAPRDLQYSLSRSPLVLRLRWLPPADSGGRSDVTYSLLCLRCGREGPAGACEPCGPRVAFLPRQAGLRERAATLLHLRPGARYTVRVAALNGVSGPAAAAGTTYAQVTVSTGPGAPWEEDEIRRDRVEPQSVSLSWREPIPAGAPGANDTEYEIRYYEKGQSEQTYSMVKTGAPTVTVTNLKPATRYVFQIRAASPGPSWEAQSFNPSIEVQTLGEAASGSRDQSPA


Legend:
Test in all cases: Selectivity ELISA of humanized antibodies for human Eph receptor
Format in all cases: binding
human EphA4 = target: T4, human EphA4 (Homo sapiens, UniProt P54764); conditions: coated protein 1 nM; reference set to 100%
T4 construct: made in house; not restated for the human SEAP-His protein
T4 sequence (P54764 20-547): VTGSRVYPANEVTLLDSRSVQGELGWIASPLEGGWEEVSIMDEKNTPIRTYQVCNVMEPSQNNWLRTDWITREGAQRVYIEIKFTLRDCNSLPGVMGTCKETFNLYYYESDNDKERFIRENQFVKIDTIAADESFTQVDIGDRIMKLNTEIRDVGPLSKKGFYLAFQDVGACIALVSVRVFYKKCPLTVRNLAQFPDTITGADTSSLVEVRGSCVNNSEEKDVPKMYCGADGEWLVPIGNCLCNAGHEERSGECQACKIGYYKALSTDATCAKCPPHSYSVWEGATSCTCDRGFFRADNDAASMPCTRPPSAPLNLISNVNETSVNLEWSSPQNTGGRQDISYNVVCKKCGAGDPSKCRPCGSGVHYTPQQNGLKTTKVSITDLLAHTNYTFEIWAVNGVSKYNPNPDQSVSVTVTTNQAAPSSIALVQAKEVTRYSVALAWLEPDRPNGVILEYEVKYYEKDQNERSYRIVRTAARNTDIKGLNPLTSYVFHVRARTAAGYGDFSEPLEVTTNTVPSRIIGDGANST
Method in brief: (§1)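 Steps: coat anti-His antibody; block, then 1% BlockAce overnight at 4 °C; add Eph receptor extracellular region-SEAP-His (1 nM final) 1 h; add humanized antibody 1 h; add HRP anti-IgG 1 h; develop TMB; stop with acid; read 450 nm.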

human EphA3 = target: T1, human EphA3; conditions: coated protein 1 nM
Method in brief: as §1

human EphB4 = target: T2, human EphB4; conditions: coated protein 1 nM
Method in brief: as §1

human EphA10 = target: T3, human EphA10; conditions: coated protein 1 nM
Method in brief: as §1

hEphA4-SEAP-: absorbance at 450 nm, percentage with respect to hEphA4-SEAP-His as 100% (human EphA4) [%]	hEphA3-SEAP-: absorbance at 450 nm, percentage with respect to hEphA4-SEAP-His as 100% (human EphA3) [%]	hEphB4-SEAP-: absorbance at 450 nm, percentage with respect to hEphA4-SEAP-His as 100% (human EphB4) [%]	hEphA10-SEAP-: absorbance at 450 nm, percentage with respect to hEphA4-SEAP-His as 100% (human EphA10) [%]	Molecule
100	5.4	5.5	5.4	69 (antibody, V domains shown, synthetic humanized antibody heavy chain variable region sequence; synthetic humanized antibody light chain variable region sequence) VH: QIQLVQSGSELKKPGASVKVSCKASGYTFTDYSMHWVRQAPGQGLKWMGWINTETGEPTYADDFKGRFVFSLDTSVSTAYLQISSLKAEDTAVYYCARIPLYYYGSRYWYFDVWGQGTTVTVSS VL: DIQMTQSPSSLSASVGDRVTITCRASENIYRNLAWYQQKPGKAPKLLVYAATNLADGVPSRFSGSGSGTDYTLTISSLQPEDFATYYCQHFWGTPWTFGQGTKVEIK
100	5.7	5.7	5.6	83 (antibody, V domains shown, constant regions without entry; synthetic humanized antibody light chain variable region sequence; synthetic humanized antibody heavy chain variable region sequence) VL: DIQMTQSPSSLSASVGDRVTITCRASENIYRNLAWYQQKPGKAPKLLLYAATNLADGVPSRFSGSGSGTDYTLTISSLQSEDFATYYCQHFWGTPWTFGQGTKVEIK VH: QIQLVQSGSELKKPGASVKVSCKASGYTFTDYSMHWVRQAPGQGLKWMGWINTETGEPTYAQGFTGRFVFSLDTSVSTAYLQISSLKAEDTAVYYCARIPLYYYGSRYWYFDVWGQGTTVTVSS

The next lines start with the molecule.

Molecule	hEphA4-SEAP-: absorbance at 450 nm, percentage with respect to hEphA4-SEAP-His as 100% (human EphA4) [%]	hEphA3-SEAP-: absorbance at 450 nm, percentage with respect to hEphA4-SEAP-His as 100% (human EphA3) [%]	hEphB4-SEAP-: absorbance at 450 nm, percentage with respect to hEphA4-SEAP-His as 100% (human EphB4) [%]	hEphA10-SEAP-: absorbance at 450 nm, percentage with respect to hEphA4-SEAP-His as 100% (human EphA10) [%]
84 (antibody, V domains shown, constant regions without entry; synthetic humanized antibody light chain variable region sequence; synthetic humanized antibody heavy chain variable region sequence) VL: DIQMTQSPSSLSASVGDRVTITCRASENIYRNLAWYQQKPGKAPKLLLYAATNLADGVPSRFSGSGSGTDYTLTISSLQSEDFATYYCQHFWGTPWTFGQGTKVEIK VH: QVQLVQSGSELKKPGASVKVSCKASGYTFTDYSMHWVRQAPGQGLEWMGWINTETGEPTYADDFKGRFVFSLDTSVSTAYLQISSLKAEDTAVYYCARIPLYYYGSRYWYFDVWGQGTTVTVSS	100	4.9	5.4	5.1
81 (antibody, V domains shown, constant regions without entry; synthetic humanized antibody light chain variable region sequence; synthetic humanized antibody heavy chain variable region sequence) VL: DIQMTQSPSSLSASVGDRVTITCRASENIYRNLAWYQQKPGKAPKLLLYAATNLADGVPSRFSGSGSGTDYTLTISSLQSEDFATYYCQHFWGTPWTFGQGTKVEIK VH: QVQLVQSGSELKKPGASVKVSCKASGYTFTDYSMHWVRQAPGQGLEWMGWINTETGEPTYAQGFTGRFVFSLDTSVSTAYLQISSLKAEDTAVYYCARIPLYYYGSRYWYFDVWGQGTTVTVSS	100	5.0	5.0	4.8
82 (antibody, V domains shown, constant regions without entry; synthetic humanized antibody light chain variable region sequence; synthetic humanized antibody heavy chain variable region sequence) VL: DIQMTQSPSSLSASVGDRVTITCRASENIYRNLAWYQQKPGKAPKLLLYAATNLADGVPSRFSGSGSGTDYTLTISSLQSEDFATYYCQHFWGTPWTFGQGTKVEIK VH: QVQLVQSGSELKKPGASVKVSCKASGYTFTDYSMHWVRQAPGQGLKWMGWINTETGEPTYAQGFTGRFVFSLDTSVSTAYLQISSLKAEDTAVYYCARIPLYYYGSRYWYFDVWGQGTTVTVSS	100	5.4	5.7	5.4
85 (antibody, V domains shown, constant regions without entry; synthetic humanized antibody light chain variable region sequence; synthetic humanized antibody heavy chain variable region sequence) VL: DIQMTQSPSSLSASVGDRVTITCRASENIYRNLAWYQQKPGKAPKLLLYAATNLADGVPSRFSGSGSGTDYTLTISSLQSEDFATYYCQHFWGTPWTFGQGTKVEIK VH: QVQLVQSGSELKKPGASVKVSCKASGYTFTDYSMHWVRQAPGQGLKWMGWINTETGEPTYADDFKGRFVFSLDTSVSTAYLQISSLKAEDTAVYYCARIPLYYYGSRYWYFDVWGQGTTVTVSS	100	5.1	5.2	5.0
86 (antibody, V domains shown, constant regions without entry; synthetic humanized antibody light chain variable region sequence; synthetic humanized antibody heavy chain variable region sequence) VL: DIQMTQSPSSLSASVGDRVTITCRASENIYRNLAWYQQKPGKAPKLLLYAATNLADGVPSRFSGSGSGTDYTLTISSLQSEDFATYYCQHFWGTPWTFGQGTKVEIK VH: QIQLVQSGSELKKPGASVKVSCKASGYTFTDYSMHWVRQAPGQGLKWMGWINTETGEPTYADDFKGRFVFSLDTSVSTAYLQISSLKAEDTAVYYCARIPLYYYGSRYWYFDVWGQGTTVTVSS	100	5.8	5.8	5.6
